Assay results as given in patent US20050037947A1, “INHIBITION OF DRUG BINDING TO SERUM ALBUMIN” (priority 2003, published 2005).

Target: T1, human serum albumin (Homo sapiens, UniProt P02768)
T1 construct: purchased Aventis, Bridgewater, N.J. Albuminar
Assay: Serum albumin binding by surface plasmon resonance (BIACORE 3000)
Conditions: SPR, immobilized serum albumin, 25° C., Req divided by molecular weight; for reduction of human serum albumin binding of the Fc chimeric protein compared to the unmodified molecule: unmodified molecule bound this many times as much
Procedure: Analysis of macromolecular interactions was performed using surface plasmon resonance as previously described (Frostell-Karlsson et al. 2000, J. Med. Chem. 43:1986). A BIACORE 3000 instrument (Biacore AB, Piscataway, N.J.) was used and all binding interactions were performed at 25° C. A carboxymethyl-modified dextran (CM5) sensor chip (Biacore AB, Piscataway, N.J.) was used for the analysis. Serum albumin (Albuminar, Aventis, Bridgewater, N.J.) was diluted to 100 μg/mL in 10 mM sodium acetate (pH 4.5) and immobilized to one flowcell of the sensor chip, using amine coupling as described (Frostell-Karlsson et al. 2000, J. Med. Chem. 43:1986). Final immobilization level was approximately 8500 Resonance Units (RU). A “mock-immobilized” surface using a separate flowcell was created using the same procedure in the absence of serum albumin and served as a reference for the binding studies.
Proteins or peptides (analyte) were diluted in HBS-N buffer (10 mM HEPES, pH 7.4; 150 mM NaCl) and injected over the serum albumin and reference surfaces for 3 minutes at a rate of 20 μL/min. After a 35 second dissociation phase, the surface was regenerated by a 30 second pulse of 10 mM glycine (pH 2.0) at a flow rate of 60 μL/min.
The sensorgrams (RU versus time) generated for the mock-coated flowcell were automatically subtracted from the serum albumin-coated sensorgrams. Response at equilibrium (Req) was measured 30 seconds before the end of the injection phase and divided by the molecular weight of the analyte, total response as is in part, a function of molecular weight. (Frostell-Karlsson et al. 2000, J. Med. Chem. 43:1986). Samples tested included T20 linked to Fc (i.e. T20-Fc produced in CHO cells and Fc-T20 produced in E. coli), a VLA4 antagonist linked to Fc, a GnRH peptide linked to Fc, PspA, a bacterial peptide fragment of S. pneumonia surface protein A, peptide YY a peptide involved in regulation of nutrient uptake and an Fc fragment of an immunoglobulin beginning with Cys 226 served as negative controls.

| Substance | reduction of human serum albumin binding of the Fc chimeric protein compared to the unmodified molecule | human serum albumin binding of the unmodified molecule compared to the same molecule linked to Fc (ratio unmodified molecule / Fc chimeric protein) |
| --- | --- | --- |
| T20-Fc: T20 linked to Fc, produced in CHO cells | more than three |  |
| T20: HIV fusion inhibitor, a small peptide, fragment of gp41 (SEQ ID NO: 1) [reference compound] |  | more than three |
| Fc-T20: T20 linked to Fc, produced in E. coli | more than three |  |
